Data published in patent publication US20170137818, “APTAMER INHIBITING BIOLOGICAL ACTIVITY OF AUTOTAXIN BY BINDING WITH AUTOTAXIN, AND USE THEREOF” (RIBOMIC INC., published 2017).

Legend:
[1] = molecular target: autotaxin (ENPP2/NPP2) (Homo sapiens, UniProt Q13822 Q13822:36-863); assay: inhibition; NPP2 assay, 37 C
[2] = molecular target: autotaxin (endogenous, human pooled serum) (Homo sapiens, UniProt Q13822 Q13822:36-863); assay: inhibition; LPA production in serum, 5.0 uM

Binder	IC50 [1]	activity [2]
GCTGGCCGGAACCGTGCATATGGTCGCCAGC (ssDNA) [SEQ 29 aptamer]	11 nM	
SEQ 4 aptamer (ssDNA) DNA: GTGGTCTAGCTGTACTCTCCGGAACCAGAGCAATTTGGTCGAGCGCTATCGGATGGTCCACAGTCAACGAGCTA	16 nM	
CCTGGACGGAACCAGAATACTTTTGGTCTCCAGG (ssDNA) [SEQ 12 aptamer]	12 nM	
CCTGGACGGAACCAGAATACTTTTGGTCTCCAGG (ssDNA, 2'-OMe C7,G9,A14,G15,A19,C20,A32,G33,G34; 5' idT, 3' idT) [12(24)]		96 % inhibition
CCTGGACGGAACCAGAATACTTTTGGTCTCCAGG (ssDNA, 2'-OMe C2) [12(40)]		84 % inhibition
CCTGGACGGAACCAGAATACTTTTGGTCTCCAGG (ssDNA, 2'-OMe T23,T24) [12(5)]		15 % inhibition
CCTGGACGGAACCAGAATACTTTTGGTCTCCAGG (ssDNA, 2'-OMe A11) [12(10)]		26 % inhibition
CCTGGACGGAACCAGAATACTTTTGGTCTCCAGG (ssDNA, 2'-OMe T29) [12(9)]		78 % inhibition
CCTGGACGGAACCAGAATACTTTTGGTCTCCAGG (ssDNA, 2'-OMe T18) [12(17)]		83 % inhibition
CCTGGACGGAACCAGAATACTTTTGGTCTCCAGG (ssDNA, 2'-OMe C31) [12(38)]		83 % inhibition
CCTGGACGGAACCAGAATACTTTTGGTCTCCAGG (ssDNA, 2'-OMe G5) [12(36)]		84 % inhibition
CCTGGACGGAACCAGAATACTTTTGGTCTCCAGG (ssDNA, 2'-OMe T23) [12(34)]		55 % inhibition
CCTGGACGGAACCAGAATACTTTTGGTCTCCAGG (ssDNA, 2'-OMe C20) [12(19)]		90 % inhibition
CCTGGACGGAACCAGAATACTTTTGGTCTCCAGG (ssDNA, 2'-OMe G25) [12(30)]		75 % inhibition
CCTGGACGGAACCAGAATACTTTTGGTCTCCAGG (ssDNA, 2'-OMe A17) [12(16)]		83 % inhibition
CCTGGACGGAACCAGAATACTTTTGGTCTCCAGG (ssDNA, 2'-OMe A19) [12(18)]		93 % inhibition
CCTGGACGGAACCAGAATACTTTTGGTCTCCAGG (ssDNA, 2'-OMe T27) [12(11)]		38 % inhibition
CCTGGACGGAACCAGAATACTTTTGGTCTCCAGG (ssDNA, 2'-OMe G26) [12(29)]		84 % inhibition
CCTGGACGGAACCAGAATACTTTTGGTCTCCAGG (ssDNA, 2'-OMe T21) [12(20)]		76 % inhibition
CCTGGACGGAACCAGAATACTTTTGGTCTCCAGG (ssDNA, 2'-OMe C30) [12(37)]		85 % inhibition
CCTGGACGGAACCAGAATACTTTTGGTCTCCAGG (ssDNA, 2'-OMe G9) [12(14)]		95 % inhibition
CCTGGACGGAACCAGAATACTTTTGGTCTCCAGG (ssDNA, 2'-OMe A16) [12(27)]		86 % inhibition

Binder	IC50 [1]	activity [2]
CCTGGACGGAACCAGAATACTTTTGGTCTCCAGG (ssDNA, 2'-OMe C1) [12(41)]		85 % inhibition
CCTGGACGGAACCAGAATACTTTTGGTCTCCAGG (ssDNA, 5' idT, 3' idT) [12(22)]		91 % inhibition
CCTGGACGGAACCAGAATACTTTTGGTCTCCAGG (ssDNA, 2'-OMe A10) [12(15)]		68 % inhibition
CCTGGACGGAACCAGAATACTTTTGGTCTCCAGG (ssDNA, 2'-OMe T22) [12(28)]		64 % inhibition
CCTGGACGGAACCAGAATACTTTTGGTCTCCAGG (ssDNA, 2'-OMe G8) [12(13)]		74 % inhibition
CCTGGACGGAACCAGAATACTTTTGGTCTCCAGG (ssDNA, 2'-OMe T3) [12(39)]		85 % inhibition
CCTGGACGGAACCAGAATACTTTTGGTCTCCAGG (ssDNA, 2'-OMe G4) [12(35)]		82 % inhibition
CCTGGACGGAACCAGAATACTTTTGGTCTCCAGG (ssDNA, 2'-OMe C28) [12(26)]		35 % inhibition
CCTGGACGGAACCAGAATACTTTTGGTCTCCAGG (ssDNA, 2'-OMe C12) [12(31)]		87 % inhibition
CCTGGACGGAACCAGAATACTTTTGGTCTCCAGG (ssDNA, 2'-OMe C13) [12(32)]		85 % inhibition
CCTGGACGGAACCAGAATACTTTTGGTCTCCAGG (ssDNA, 2'-OMe C12,C13) [12(4)]		82 % inhibition
CCTGGACGGAACCAGAATACTTTTGGTCTCCAGG (ssDNA, 2'-OMe A6) [12(8)]		69 % inhibition
CCTGGACGGAACCAGAATACTTTTGGTCTCCAGG (ssDNA, 2'-OMe C7) [12(12)]		94 % inhibition
CCTGGACGGAACCAGAATACTTTTGGTCTCCAGG (ssDNA, 5' 40 kDa PEG (GL2-400GS2) via ssH linker, 3' idT) [12(23)]		90 % inhibition
CCTGGACGGAACCAGAATACTTTTGGTCTCCAGG (ssDNA, 2'-OMe G25,G26) [12(6)]		63 % inhibition
CCTGGACGGAACCAGAATACTTTTGGTCTCCAGG (ssDNA, 2'-OMe G4,G5) [12(21)]		84 % inhibition
CCTGGACGGAACCAGAATACTTTTGGTCTCCAGG (ssDNA, 2'-OMe C1,C2,T3,G4,G5,C7,G9,C12,C13,A14,G15,T18,A19,C20,A32,G33,G34; 5' idT, 3' idT) [12(25)]		84 % inhibition
CCTGGACGGAACCAGAATACTTTTGGTCTCCAGG (ssDNA, 2'-OMe T24) [12(33)]		62 % inhibition
CCTGGACGGAACCAGAATACTTTTGGTCTCCAGG (ssDNA, 2'-OMe A14,G15) [12(7)]		88 % inhibition
GTACTCATGGACGGAACCAGAATACTTTTGGTCTCCATTGAGTAC (ssDNA) [SEQ 11 aptamer]	12 nM	
SEQ 5 aptamer (ssDNA) DNA: GTGGTCTAGCTGTACTCATGGACGGAACCAGAATACTTTTGGTCTCCATTGAGTACGCCACAGTCAACGAGCTA	11 nM	
